In patent publication CN113912731A (SHENGHE CHINA BIO PHARMACY CO LTD, dated 2022):

molecular target: T1, 人FGL1-his蛋白(Sinobio;Cat:13484-H08B) (human, UniProt Q08830 23-312); assay: ELISA, plate coated with human FGL1-his
T1 construct: Bought protein; also called 重组人FGL1-his蛋白; not shown: his tag
T1 sequence (looked up): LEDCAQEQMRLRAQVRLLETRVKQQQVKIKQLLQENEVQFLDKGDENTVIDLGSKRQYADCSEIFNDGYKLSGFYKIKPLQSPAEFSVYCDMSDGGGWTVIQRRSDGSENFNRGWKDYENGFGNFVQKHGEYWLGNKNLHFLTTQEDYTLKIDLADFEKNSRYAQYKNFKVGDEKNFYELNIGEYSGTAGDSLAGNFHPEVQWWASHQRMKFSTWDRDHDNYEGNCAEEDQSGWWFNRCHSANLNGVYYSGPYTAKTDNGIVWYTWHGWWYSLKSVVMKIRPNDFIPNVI

| Binder | binding result |
| --- | --- |
| SH-06 (antibody, V domains shown, From the human natural phage display library; also called 抗体SH-06; not shown: 轻链恒定区) VH: QVQLQESGPGLVKPSQTLSLTCTVSGGSISSGGYYWSWIRQHPGKGLEWIGYIYYSGSTYYNPSLKSRVTISVDTSKNQFSLKLSSVTAADTAVYYCARDSVMGYAPRVRAFDIWGQGTMVTVSS VL: QSALTQPPSASGTPGQRVTISCSGSSSNIGTNTVNWYQQLPGTAPKLLIYSTNQRPSGVPDRFSGSKSGTSASLAISGLQSEDEADYYCSSWAGDLNGRLFGGGTKLTVL | binds |
| SH-07 (antibody, V domains shown, From the human natural phage display library; also called 抗体SH-07; not shown: 轻链恒定区) VH: not shown VL: DIQMIQSPSSLSASVGDRVTITCRASQSISHYLNWYQQKPGKVPKLLIYAASSLQSGVPSRFSGSGSGTDFTLTISSLQPEDFATYYCQQSYSTPSFGQGTKVEIK | binds |
| SH-08 (antibody, V domains shown, From the human natural phage display library; also called 抗体SH-08; not shown: 轻链恒定区) VH: EVQLVESGGGLVKPGGSLRLSCAASGFTFSSYSMNWVRQAPGKGLEWVSSISSSSSYIYYADSVKGRFTISRDNAKNSLYLQMNSLRAEDTAVYYCARDFPSPSGGRGFRPTTARGYGMDVWGQGTTVTVSS VL: QSALTQPASVSGSPGQSIIISCTGSKSDIGTYNFVSWYQQHPGKAPNVIIYNVNKRPSGVSDRFSGSKSGNTASLTISGLQAEDEADFYCSSYTSSGTHVFGSGTKVIVL | binds |
| SH-09 (antibody, human IgG1, V domains shown, Heavy-chain-only antibody from the alpaca immune phage library; expressed in CHO cells; also called 抗体SH-09) VH: QVQLVESGGGLVQPGGSLRLSCTASGFNLDFYTIGWFLQAPGKEREGVSCISNSGGSSVYADSVKGRFTISRDSAKNTVYLQMNSLDPEDTAVYYCAALAGRGCMRSPITTDEYDSWGQGTQVTVSS | binds |
| SH-10 (antibody, human IgG1, V domains shown, Heavy-chain-only antibody from the alpaca immune phage library; expressed in CHO cells; also called 抗体SH-10) VH: EVQLVESGGGLVQPGGSLRLSCAASGDTLDYYAIGWFRQAPGKEREGVSCIRSSGSGPHYSDSVQDRFIISRDNARGTVYLQMNSLKPEDTAVYYCAATEGFYCSPTLSQGEYDYWGQGTQVTVSS | binds |
| SH-03 (antibody, V domains shown, From hybridoma; also called 抗体SH-03; not shown: 轻链恒定区) VH: QVQLQQSGPELVKPGASVKISCKASGYTFTDYYINWLRQKPGQGLEWIGWIYPGSANTNYNEKFKGKAILTVDTSSSTAYMQLSSLTSEDTAVYFCARWLLRSAYWGQGTLVTVSA VL: DIVLSQSPAILSASPGEKVTMTCRASSSVSYMYWYQQKPGSSPKPWIYATSNLASGVPARFSGSGSGTSYSLTISRVEAEDAATYYCQQWSSNPYTFGGGTKLEIK | binds |
| SH-04 (antibody, V domains shown, From hybridoma; also called 抗体SH-04; not shown: 轻链恒定区) VH: EVQLQQSGPELEKPGASVKMSCKASGYTFTRYWMHWVKQRPGQGLEWIGMIDPSDSYTSYNQKFKGKATLTVDTSSSTAYMQLSSLTSEDSAVYYCTLRPGLDYWGQGTTLTVSS VL: DIVMTQSQKFMSTSVGDRVSVTCKASQNVGTNVAWYQQKPGQSPKALIYSASYRYSGVPDRFTGSGSGTDFTLTISNVQSEDLAEYFCQQYNSYPLTFGGGTKLEIK | binds |
| SH-05 (antibody, V domains shown, From the human natural phage display library; also called 抗体SH-05; not shown: 轻链恒定区) VH: EVQLVQSGGVVVQPGGSLRLSCAASGFTFDDYAMHWVRQAPGKGLEWVSLISWDGGSTYYADSVKGRFTISRDNSKNTLYLQMNSLRAEDTAVYYCARNSGRRNWFDPWGQGTLVTVSS VL: not shown | binds |

molecular target: T2, 鼠FGL1-his (mouse, UniProt Q71KU9 23-314, limits assumed); assay: human/mouse cross-reactivity (ELISA of Example 8)
T2 construct: also called 小鼠FGL1蛋白; 鼠FGL1蛋白; not shown: his tag
T2 sequence (looked up): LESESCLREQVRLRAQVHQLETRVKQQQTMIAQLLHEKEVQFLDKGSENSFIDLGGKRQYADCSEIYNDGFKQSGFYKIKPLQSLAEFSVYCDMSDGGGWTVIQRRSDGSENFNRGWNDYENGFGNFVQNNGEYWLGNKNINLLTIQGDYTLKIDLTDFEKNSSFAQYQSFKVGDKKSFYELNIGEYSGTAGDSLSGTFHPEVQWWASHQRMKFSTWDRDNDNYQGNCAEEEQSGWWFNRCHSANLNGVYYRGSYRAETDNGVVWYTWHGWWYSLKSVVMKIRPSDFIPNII

| Binder | binding result |
| --- | --- |
| SH-07 (antibody, V domains shown, From the human natural phage display library; also called 抗体SH-07; not shown: 轻链恒定区) VH: not shown VL: DIQMIQSPSSLSASVGDRVTITCRASQSISHYLNWYQQKPGKVPKLLIYAASSLQSGVPSRFSGSGSGTDFTLTISSLQPEDFATYYCQQSYSTPSFGQGTKVEIK | binds |
